Assay results published in patent US20230181770A1, “COMPOSITIONS AND METHODS OF TARGETING AND IMAGING AGED MICROGLIA WITH Aß PEPTIDE AMINO ACID RESIDUES FOR V-DOMAIN BINDING OF RAGE” (Neurosn, Inc., priority 2018, published 2023).

Biological target: T1, RAGE receptors (Mus musculus, UniProt Q62151)
T1 construct: from tissue; host or cells: mouse brain (APPSWE Model 2789 and C57BL/6 mice), after tail vein injection
Assay: Brain autoradiography (AR) binding localization after tail vein injection in AD and normal mice
Format: in vivo
Conditions: 50 μCi per tail vein at day 0, sacrificed day 3
From the text: Four APPSWE Model 2789 mice (AD) and 4 C57BL/6 mice (normal) receive an injection of 50 μCi of Sn-IBD-Aβ(16-23) per tail vein at day 0.
Additionally, four APPSWE Model 2789 mice (AD) and 4 C57BL/6 mice (normal) receive an injection of 50 μCi of Sn-IBD-K-Aβ(23-17) per tail vein at day 0.
All the animals are sacrificed on day 3 post Sn-Aβ-AA injection and brains preserved and autoradiography (AR) binding localization in AD-specific areas mapped.
Findings—Histopathological comparison and autoradiography dosimetry are measured in each mouse brain in comparative anatomic regions.

T1 sequence (Q62151 23-402): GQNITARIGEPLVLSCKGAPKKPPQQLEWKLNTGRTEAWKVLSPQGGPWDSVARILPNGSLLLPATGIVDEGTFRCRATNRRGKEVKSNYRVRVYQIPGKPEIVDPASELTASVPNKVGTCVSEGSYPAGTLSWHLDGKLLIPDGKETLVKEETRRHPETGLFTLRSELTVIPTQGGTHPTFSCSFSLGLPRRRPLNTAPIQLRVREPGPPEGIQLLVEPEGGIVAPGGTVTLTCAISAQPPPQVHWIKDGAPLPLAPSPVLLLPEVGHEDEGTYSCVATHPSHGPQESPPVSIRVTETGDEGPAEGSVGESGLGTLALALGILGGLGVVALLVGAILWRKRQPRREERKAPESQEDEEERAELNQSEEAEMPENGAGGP

## Sn-IBD-Aβ(16-23) (KLVFFAED; Amyloid-beta protein 42 Sn-IBD conjugate; UniProt P05067 687-694, looked up, fragment)
RAGE expressing APPSWE Model 2789 mice (AD)
  AR distribution of RAGE binding in brain: increase in RAGE binding
Normal C57BL/6 mice
  AR distribution of RAGE binding in cortical and hippocampal areas: minimal
